Km and kcat/Km data for one substance are collected here from PMC6471826, “Cold-Adapted Glutathione S-Transferases from Antarctic Psychrophilic Bacterium Halomonas sp. ANT108: Heterologous Expression, Characterization, and Oxidative Resistance” (Marine Drugs, 2019).

For the data set, the system named is O=[N+]([O-])c1ccc(Cl)c([N+](=O)[O-])c1. Kind of data set: purified protein. Particulars: co-substrate GSH, CDNB 0.5-4.5 mM, 25 °C.

For orientation: Km means the substrate concentration at which the rate is half of its maximum. What is called kcat/Km is the turnover number divided by the Michaelis constant. Regarding rHsGST (Halomonas sp.), the Km turned out to be 2860 µM and the kcat/Km was determined as 18800 M⁻¹ s⁻¹.
